# Laboratory results published in the MegaScale stability set (Tsuboyama et al. 2023).
# B1: EEHEE_rd3_0130 (parent)
# chain: TKIIVNGKTFTAPTEEEAQKIAEKLAKKAGLTVHKKNGTFELK
# Variants of: B1
# Assay: folding stability dG (cDNA display proteolysis); higher = more stable
# Details: PBS, room temperature
row,Variant,folding stability dG [kJ/mol]
1,TKIIVNGKTFTAPTEEEAQKIAEKLAKKAGLTVHKKGGTFELK,2.92
2,TKIIVWGKTFTAPTEEEAQKIAEKLAKKAGLTVHKKNGTFELK,6.17
3,TKIIVCGKTFTAPTEEEAQKIAEKLAKKAGLTVHKKNGTFELK,8.56
4,TKIIVFGKTFTAPTEEEAQKIAEKLAKKAGLTVHKKNGTFELK,6.76
5,TKIIVGGKTFTAPTEEEAQKIAEKLAKKAGLTVHKKNGTFELK,4.27
6,TKTIVNGKTFTAPTEEEAQKIAEKLAKKAGLTVHKKNGTFELK,-3.75
7,TKEIVNGKTFTAPTEEEAQKIAEKLAKKAGLTVHKKNGTFELK,-3.8
8,TKMIVNGKTFTAPTEEEAQKIAEKLAKKAGLTVHKKNGTFELK,-1.54
9,TKLIVNGKTFTAPTEEEAQKIAEKLAKKAGLTVHKKNGTFELK,-0.41
10,TKIIVNGKTFYAPTEEEAQKIAEKLAKKAGLTVHKKNGTFELK,5.95
11,TKIIVNGKTFDAPTEEEAQKIAEKLAKKAGLTVHKKNGTFELK,-1.26
12,TKIIVNGKTFSAPTEEEAQKIAEKLAKKAGLTVHKKNGTFELK,2.61
13,TKIIVNGKTFHAPTEEEAQKIAEKLAKKAGLTVHKKNGTFELK,2.92
14,TKIIVNGKTFKAPTEEEAQKIAEKLAKKAGLTVHKKNGTFELK,1.04
15,TKIIVNGKTFTAPTEEEAQKIAEKLAKKAGLTVHKKNSTFELK,-3.36
16,TKIIVNGKTFTAPTEEEAQKIAEKLAKKAGLTVHKKNDTFELK,2.04
17,TKIIVNGKTFTAPTEEEAQKIAEKLAKKAGLTVHKKNRTFELK,-1.98
18,TKIIVNGKTFTAPTEEEAQKIAEKLAKKAGLTVHKKNYTFELK,0.0377
19,TKIIVNGKTFTAPTEEEAQKIAEKLAKKAGLTVHKKNQTFELK,-0.908
20,TKIIVNGKTFTAPTEEEAQKIAEKLAKKAGLTVHKKNGTFVLK,4.56
21,TKIIVNGKTFTAPTEEEAQKIAEKLAKKAGLTVHKKNGTFMLK,2.08
22,TKIIVNGKTFTAPTEEEAQKIAEKLAKKAGLTVHKKNGTFTLK,-0.0167
23,TKIIVNGKTFTAPTEEEAQKIAEKLAKVAGLTVHKKNGTFELK,3.33
24,TKIIVNGKTFTAPTEEEAQKIAEKLAKGAGLTVHKKNGTFELK,1.99

row,Variant,folding stability dG [kJ/mol]
1,TKIIVNGKTFTAPTEEEAQKIAEKLAKWAGLTVHKKNGTFELK,6.41
2,TKIIVNGKTFTAPTEEEAQKIAEKLAKMAGLTVHKKNGTFELK,4.39
3,TKIIVNGKTFTAPTEEEAQKIAEKLAKAAGLTVHKKNGTFELK,4.57
4,TKIIVNGKTFTAPTEEEAQKIAEKLAKLAGLTVHKKNGTFELK,4.33
5,TKIIVNGKTFTAPTEEEAQKCAEKLAKKAGLTVHKKNGTFELK,6.33
6,TKIIVNGKTFTAPTEEEAQKVAEKLAKKAGLTVHKKNGTFELK,1.92
7,TKIIVNGKRFTAPTEEEAQKIAEKLAKKAGLTVHKKNGTFELK,-0.276
8,TKIIVNGKLFTAPTEEEAQKIAEKLAKKAGLTVHKKNGTFELK,2.35
9,TKIIVNGKFFTAPTEEEAQKIAEKLAKKAGLTVHKKNGTFELK,2.92
10,TKIIVNGKPFTAPTEEEAQKIAEKLAKKAGLTVHKKNGTFELK,-2.59
11,TKIIVNGKTFTAPTEEEAQKIAEKLAKKAGLTHHKKNGTFELK,-1.87
12,TKIIVNGKTFTAPTEEEAQKIAEKLAKKAGLTEHKKNGTFELK,-2.21
13,TKIIVNGKTFTAPTEEEAQKIAEKLAKKAGLTTHKKNGTFELK,0.933
14,TKIIVNGKTFTAPTEEEAQKIAEDLAKKAGLTVHKKNGTFELK,2.83
15,TKIIVNGKTFTAPTEEEAQKIAESLAKKAGLTVHKKNGTFELK,3.65
16,TKIIVNGKTFTAPTEEEAQKIAEELAKKAGLTVHKKNGTFELK,3.34
17,TKIIVNGKTFTAPTEEEAQKIAEKLAFKAGLTVHKKNGTFELK,3.08
18,TKIIVNGKTFTAPTEEEAQKIAEKLAQKAGLTVHKKNGTFELK,3.18
19,TKIIVNGKTFTAPTEEEAQKIAEKLAKKAGLTVHRKNGTFELK,3.34
20,TKIIVNGKTFTAPTEEEAQKIAEKLAKKAGLTVHIKNGTFELK,3
21,TKILVNGKTFTAPTEEEAQKIAEKLAKKAGLTVHKKNGTFELK,2.44
22,TKIAVNGKTFTAPTEEEAQKIAEKLAKKAGLTVHKKNGTFELK,-0.891
23,TKIIVNAKTFTAPTEEEAQKIAEKLAKKAGLTVHKKNGTFELK,0.0293
24,TKIIVNDKTFTAPTEEEAQKIAEKLAKKAGLTVHKKNGTFELK,-1.36

row,Variant,folding stability dG [kJ/mol]
1,TKIIVNCKTFTAPTEEEAQKIAEKLAKKAGLTVHKKNGTFELK,4.02
2,TKIIVNVKTFTAPTEEEAQKIAEKLAKKAGLTVHKKNGTFELK,-2.48
3,TKIIVNWKTFTAPTEEEAQKIAEKLAKKAGLTVHKKNGTFELK,0.782
4,TKIIVNGKTFTAPTEEEAQKIAEKLAKKAGLTVHKKNGTDELK,0.167
5,TKIIVNGKTFTAPTEEEAQKIAEKLAKKAGLTVHKKNGTTELK,-0.146
6,TKIIVNGKTFTAPTEEEAQKIAEKTAKKAGLTVHKKNGTFELK,-0.561
7,TKIIVNGKTFTAPTEEEAQKIAEKDAKKAGLTVHKKNGTFELK,-3.36
8,TKIIVNGKTFTHPTEEEAQKIAEKLAKKAGLTVHKKNGTFELK,1.45
9,TKIIVNGKTFTMPTEEEAQKIAEKLAKKAGLTVHKKNGTFELK,4.28
10,TKIIVNGKTFTAPTVEEAQKIAEKLAKKAGLTVHKKNGTFELK,3.54
11,TKIIVNGKTFTAPTGEEAQKIAEKLAKKAGLTVHKKNGTFELK,0.787
12,TKIIVNGKTFTAPTIEEAQKIAEKLAKKAGLTVHKKNGTFELK,2.88
13,TKIIVNGKTFTAPTNEEAQKIAEKLAKKAGLTVHKKNGTFELK,1.3
14,TKIIVNGKTFTAPTEEEAQKIAEKLAKKAGATVHKKNGTFELK,-0.703
15,TKIIVNGKTFTAPTEEEAQKIAEKLAKKAGMTVHKKNGTFELK,3.74
16,TKIIVNGKTFTAPTEEEAQKIAEKLAKKAGLTVDKKNGTFELK,0.816
17,TKIIVNGKTFTAPTEEEAQKIAEKLAKKAGLTVEKKNGTFELK,2.84
18,TKIIVNGKTFTAPTEEEAQKIAEKLAKKAGLTVLKKNGTFELK,3.77
19,TKIIVNGKTFTARTEEEAQKIAEKLAKKAGLTVHKKNGTFELK,3.99
20,TKIIVNGKTFTACTEEEAQKIAEKLAKKAGLTVHKKNGTFELK,4.1
21,TKIIVNGLTFTAPTEEEAQKIAEKLAKKAGLTVHKKNGTFELK,3.74
22,TKIIVNGKTFTAPGEEEAQKIAEKLAKKAGLTVHKKNGTFELK,1.34
23,TKIIVNGKTFTAPCEEEAQKIAEKLAKKAGLTVHKKNGTFELK,2.85
24,TKIIVNGKTFTAPKEEEAQKIAEKLAKKAGLTVHKKNGTFELK,-1.67

row,Variant,folding stability dG [kJ/mol]
1,TKIIVNGKTFTAPNEEEAQKIAEKLAKKAGLTVHKKNGTFELK,3.75
2,TKIIVNGKTFTAPTEEEAQKIAEKLKKKAGLTVHKKNGTFELK,-0.787
3,TKIIVNGKTFTAPTEEEAQKILEKLAKKAGLTVHKKNGTFELK,1.26
4,TKIIVNGKTFTAPTEEEAQKIWEKLAKKAGLTVHKKNGTFELK,0.0711
5,TKIIVNGKTFTAPTEEEAQKIGEKLAKKAGLTVHKKNGTFELK,-3.47
6,TKIIVNGKTFTAPTEEEAQKIEEKLAKKAGLTVHKKNGTFELK,-3.81
7,TKIIVNGKTFTAPTEEEAQKIQEKLAKKAGLTVHKKNGTFELK,-2.75
8,IKIIVNGKTFTAPTEEEAQKIAEKLAKKAGLTVHKKNGTFELK,5.74
9,YKIIVNGKTFTAPTEEEAQKIAEKLAKKAGLTVHKKNGTFELK,9.18
10,TKIIVNGKTFTAPTEEEAQKIAEKLAKKAFLTVHKKNGTFELK,-0.389
11,TKIIVNGKTFTAPTEEEAQKIAEKLAKKACLTVHKKNGTFELK,4.1
12,TKIIVNGKTFTAPTEEEAQKIAEKLAKKARLTVHKKNGTFELK,0.238
13,TKIIVNGKTFTAPTEEEAQKIAEKLAKKAYLTVHKKNGTFELK,-0.151
14,TKIIVNGKTFTAPTEEEAQKIAEKLAKKAGLTVHKKNGTFEIK,3.27
15,THIIVNGKTFTAPTEEEAQKIAEKLAKKAGLTVHKKNGTFELK,1.14
16,TVIIVNGKTFTAPTEEEAQKIAEKLAKKAGLTVHKKNGTFELK,2.1
17,TKIIVNGKTFTAPTEEEAQKIAEKLAKKAGLNVHKKNGTFELK,1.17
18,TKIIVNGKTFTAPTEEEAQKIAEKLAKKAGLEVHKKNGTFELK,0.929
19,TKIIPNGKTFTAPTEEEAQKIAEKLAKKAGLTVHKKNGTFELK,-2.29
20,TKIIENGKTFTAPTEEEAQKIAEKLAKKAGLTVHKKNGTFELK,-2.65
21,TKIICNGKTFTAPTEEEAQKIAEKLAKKAGLTVHKKNGTFELK,6.82
22,TKIIDNGKTFTAPTEEEAQKIAEKLAKKAGLTVHKKNGTFELK,-3.67
23,TKIIVNGKTFTAPTEEEAQKIAEKLAKKAGLTVHKKNGGFELK,4.73
24,TKIIVNGKTFTAPTEEEAQWIAEKLAKKAGLTVHKKNGTFELK,3.36

row,Variant,folding stability dG [kJ/mol]
1,TKIIVNGKTFTAPTEEEAQLIAEKLAKKAGLTVHKKNGTFELK,3.28
2,TKIIVNGKTFTAPTEEEAQAIAEKLAKKAGLTVHKKNGTFELK,3.43
3,TKIIVNGKTFTAPTEEEAQKIAEKLAKKAGLTVHKKNGTFELI,5.56
4,TKIIVNGKTFTAPTEEEAQKIAEKLAKKAGLTVHKKNGTFELQ,2.57
5,TKIIVNGKTFTAPTEEEAQKIAEKLAKKAGLTVHKKNGTFELW,4.85
6,TKIIVNGKTFTAPTEEEAQKIAEKLAKKAGLTVHKKNGTFELE,2.28
7,TKIIVNGKTFTAPTEEEAQKIAEKLAKKAGLTVHKKNGTFELP,-0.837
8,TKIIVNGKTFTAPTEEEAQKIAEKLAKKAGLTVHKKNGTFELV,5.44
9,TKIIVNGKTFTAPTEEEGQKIAEKLAKKAGLTVHKKNGTFELK,1.57
10,TKIIVNGKTFTAPTEEEKQKIAEKLAKKAGLTVHKKNGTFELK,-3.98
11,TKIIVNGKTFTAPTEEEFQKIAEKLAKKAGLTVHKKNGTFELK,-1.54
12,TKIIVNGKTFTAPTEEEDQKIAEKLAKKAGLTVHKKNGTFELK,-2.84
13,TKIIVNGKTFTAPTEEEAQKIAQKLAKKAGLTVHKKNGTFELK,3.15
14,TKIIVNGKTFTAPTEEEAQKIAVKLAKKAGLTVHKKNGTFELK,2.5
15,TKIIVNGKTFTAPTEEGAQKIAEKLAKKAGLTVHKKNGTFELK,1.1
16,TKIIVNGKTFTAPTEERAQKIAEKLAKKAGLTVHKKNGTFELK,2.83
17,TKIIVNGKTFTAPTEEQAQKIAEKLAKKAGLTVHKKNGTFELK,3.83
18,TKIIVNGKTFTAPTEENAQKIAEKLAKKAGLTVHKKNGTFELK,0.268
19,TKIIVNGKTFTAPTEECAQKIAEKLAKKAGLTVHKKNGTFELK,6.1
20,TKIIVNGKTFTAPTEIEAQKIAEKLAKKAGLTVHKKNGTFELK,3.03
21,TKIIVNGKTFTAPTEYEAQKIAEKLAKKAGLTVHKKNGTFELK,3.61
22,TKIIVNGKTFTAPTEDEAQKIAEKLAKKAGLTVHKKNGTFELK,2.56
